In PMC7051184, “C9orf72 arginine-rich dipeptide repeat proteins disrupt karyopherin-mediated nuclear import” (eLife, 2020):
Where no end group is shown, it is not given here.

Columns and labels:
[1] = target: T1, 6His-S-Importin β(1-876), full-length WT human importin β (human, UniProt Q14974 1-876); assay: FRET or BRET; Rango FRET sensor in solution: 20 nM Rango-2/α1 (pK188) and 50 nM importin β (pKW485) in TBS pH 7.4, 0.01% Tween-20, with increasing concentrations of DPR 10-mers or ZZ-RanQ69L-GTP; ratio of acceptor (535 nm) to donor (480 nm) emission; non-linear fit with one binding site; details: both partners purified
T1 construct: human importin β (KPNB1), full length, residues 1-876, expressed from pET30a; Construct from Chi et al., 1997; also called KPNB1; WT importin β (pKW485)

[2] = target: T2, biotinylated WT importin β-Avitag (human, UniProt Q14974 1-876, biotin on the Avitag); assay: bead halo assay; biotinylated importin β or biotinylated BSA on neutravidin polystyrene beads; fluorescent prey (200 nM AF488-DPR, Rango) in binding buffer with assay buffer (EDTA, BSA, NaCl, Tween); room temperature, at least 30 min; confocal rim vs. background ratio; details: both partners purified
T2 construct: WT human importin β (KPNB1) in pRSET A with C-terminal Avitag; Called WT; Held on neutravidin beads by the biotin; also called biotinylated importin β; importin β-coated beads; source: E. coli BL21DE3, co-expressed with BirA biotin ligase, purified (Ni-NTA)
T2 sequence (Q14974 whole entry): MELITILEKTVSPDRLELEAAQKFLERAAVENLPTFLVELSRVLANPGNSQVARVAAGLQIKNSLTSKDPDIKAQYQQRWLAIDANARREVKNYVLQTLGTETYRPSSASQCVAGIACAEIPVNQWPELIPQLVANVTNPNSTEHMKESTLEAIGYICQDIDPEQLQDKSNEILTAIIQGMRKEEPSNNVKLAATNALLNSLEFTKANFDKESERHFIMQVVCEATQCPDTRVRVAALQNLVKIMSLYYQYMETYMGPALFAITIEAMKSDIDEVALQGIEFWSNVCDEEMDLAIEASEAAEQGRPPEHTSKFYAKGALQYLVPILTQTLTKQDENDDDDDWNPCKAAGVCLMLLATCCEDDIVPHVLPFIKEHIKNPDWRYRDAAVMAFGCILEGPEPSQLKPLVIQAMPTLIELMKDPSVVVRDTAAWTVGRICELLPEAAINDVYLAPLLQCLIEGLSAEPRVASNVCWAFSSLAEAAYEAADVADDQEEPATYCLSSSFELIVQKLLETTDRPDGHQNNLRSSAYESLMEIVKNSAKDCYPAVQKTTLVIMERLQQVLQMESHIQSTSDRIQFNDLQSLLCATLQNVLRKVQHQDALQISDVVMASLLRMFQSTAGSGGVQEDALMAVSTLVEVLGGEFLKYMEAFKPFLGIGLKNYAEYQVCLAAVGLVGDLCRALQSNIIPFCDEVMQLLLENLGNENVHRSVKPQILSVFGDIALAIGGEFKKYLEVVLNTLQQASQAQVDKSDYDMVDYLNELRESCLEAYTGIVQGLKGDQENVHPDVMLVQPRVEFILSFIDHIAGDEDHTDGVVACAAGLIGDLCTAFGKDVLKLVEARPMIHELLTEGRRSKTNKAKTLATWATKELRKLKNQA

T1 sequence (Q14974 whole entry, the tested form may be a part): as the sequence (Q14974 whole entry) above

Row | Binder | binding result [1] | halo intensity (rim vs. background) relative to control beads [2] [fold]
1 | PRPRPRPRPRPRPRPRPRPRKC (C9orf72 repeat-associated non-AUG translation product poly-PR, 10 repeats, plus C-terminal K and C; unlabelled form; also called R-DPR; source: synthetic peptide (Genscript; 21st Century Biochemicals)) | binds | –
2 | GRGRGRGRGRGRGRGRGRGRKC (C9orf72 repeat-associated non-AUG translation product poly-GR, 10 repeats, plus C-terminal K (solubility) and C (labelling); unlabelled form, used in the FRET, GFP-Trap, sedimentation and import assays; also called poly-GR; R-DPR; source: synthetic peptide (Genscript; 21st Century Biochemicals)) | binds | –
3 | GRGRGRGRGRGRGRGRGRGRKC(Alexa Fluor 488 C5‑maleimide) (poly-GR, 10 repeats, plus C-terminal K and C; also called AF488-GR10; DPR-AF488; source: synthetic peptide (Genscript)) [AF488-labeled GR10] | – | ~2
4 | PRPRPRPRPRPRPRPRPRPRKC(Alexa Fluor 488 C5‑maleimide) (poly-PR, 10 repeats, plus C-terminal K and C; also called AF488-PR10; DPR-AF488; source: synthetic peptide (Genscript)) [AF488-labeled PR10] | – | ~2
